T1: cyno IL-12RB2 with C-terminal HA tag, transiently expressed on HEK-293T cells (cyno, UniProt A0A2K5VNI7 24-860)
T1 construct: whole, on cells; also called cyno IL-12Rβ2
T1 sequence: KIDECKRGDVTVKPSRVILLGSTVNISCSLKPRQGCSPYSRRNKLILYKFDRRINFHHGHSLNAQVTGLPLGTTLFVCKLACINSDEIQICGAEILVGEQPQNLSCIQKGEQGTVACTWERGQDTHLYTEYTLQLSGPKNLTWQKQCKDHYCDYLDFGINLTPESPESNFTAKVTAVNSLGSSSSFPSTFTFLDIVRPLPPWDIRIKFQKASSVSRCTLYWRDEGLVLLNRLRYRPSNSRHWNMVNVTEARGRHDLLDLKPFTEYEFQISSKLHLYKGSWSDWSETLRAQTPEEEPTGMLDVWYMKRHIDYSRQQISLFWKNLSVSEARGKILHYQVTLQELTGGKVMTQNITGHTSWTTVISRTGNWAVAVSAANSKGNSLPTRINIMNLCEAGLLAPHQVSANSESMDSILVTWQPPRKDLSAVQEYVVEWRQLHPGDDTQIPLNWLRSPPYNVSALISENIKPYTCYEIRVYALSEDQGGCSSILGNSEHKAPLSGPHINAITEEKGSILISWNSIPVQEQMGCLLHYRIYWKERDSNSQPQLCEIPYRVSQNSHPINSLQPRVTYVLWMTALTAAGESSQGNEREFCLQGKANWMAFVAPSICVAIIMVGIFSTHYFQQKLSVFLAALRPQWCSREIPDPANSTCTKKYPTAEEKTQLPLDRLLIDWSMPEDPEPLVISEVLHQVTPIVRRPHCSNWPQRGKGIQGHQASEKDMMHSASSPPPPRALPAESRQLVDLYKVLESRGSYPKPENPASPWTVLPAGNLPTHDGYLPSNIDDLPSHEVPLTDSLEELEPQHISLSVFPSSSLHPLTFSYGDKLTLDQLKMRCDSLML


Columns and labels:
[1] = target: T2, human IL-12Rβ1-his (Acro Biosystems), biotinylated (human, UniProt P42701 24-545, biotinylated); experiment: ELISA, periplasmic extract
T2 construct: bought; captured on Neutravidin in the ELISA; also called Bio-huIL-12Rβ1-His

[2] = target: T3, cyno IL-12RB1 with C-terminal FLAG tag, transiently expressed on HEK-293T cells (cyno, UniProt A0A2K5VWV1 24-662); experiment: FACS, periplasmic extract, HEK-293T
T3 construct: whole, on cells

[3] = target: T4, human IL-12RB1 with C-terminal FLAG tag, transiently expressed on HEK-293T cells (human, UniProt P42701 24-662); experiment: FACS, periplasmic extract, HEK-293T
T4 construct: whole, on cells

[4] = target: T1, cyno IL-12RB2 with C-terminal HA tag, …; experiment: FACS, periplasmic extract, HEK-293T

| Binder | OD450 nm [1] | FOB [2] | FOB [3] | FOB [4] |
| --- | --- | --- | --- | --- |
| VHH137B1 (VHH) VHH: QVQLVESGGGLVQAGGSLRLSCAASGRTFRTYAMGWFRQAPGKDREVVGIAAWKVASTYYVDYGDSVRGRFTISRDDAKSTVYLQMNNLMPEDTAVYYCAAGAFRTDWRSYAYWGQGTQVTVSS | 3.31 | 152 fold | 116 fold |  |
| VHH97B1 (VHH) VHH: QVQLVESGGGLAQAGGSLRLSCAASGRTFSNDDMAWFRQAPGKEREFVAHIDRNAASTNYADSVKGRFTISRDNAKNTVYLQMTRLKPEDTAVYYCAADPDHFGTTWYQQYTYWGPGTQVTVSS | 0.409 | 99 fold | 133 fold |  |
| VHH32B1 (VHH) VHH: EVQLVESGGGLVQPGGSLRLSCAASGFTFQNYAMSWLRKAPGEGLEWVSVINSGGGSTLYADSVKGRFTISRDNAKNTLYLQMHSLKSEDTAVYFCAKRRDDSTFGSLLYTHRGQGTQVTVSS | 1.28 | 129 fold | 78 fold |  |
| VHH187B1 (VHH) VHH: EVQLVESGGGLVQPGGSLRLSCAASGFTLDYYAIGWFRQAPGKEREGVSCISSSDRSTWYADSVKGRFTISRDNAKNTVYLQMHSLKPEDTAVYYCATPCYSDYDPEGYEYDYWGQGTQVTVSS | 0.125 | 42 fold | 86 fold |  |
| VHH41B1 (VHH) VHH: EVQLVESGGGLVQAGGSLRVACAASGRTFSTYAMAWFRQAPGKEREFVAHILWSGGSTVYPDSVRGRFTISRDNAKNTVYLQMNSLKPEDTAVYYCAQKSGRQVYRIDSWDSFDYWGQGTSVTVSS | 0.413 | 19 fold | 48 fold |  |
| VHH174B1 (VHH) VHH: QVQLVESGGGAVQAGGSLRLSCAASGLTSRHYVMAWFRQAPGIEREFVASIWWGGSTYYADSVKDRFTISRDNAENTVYLQMNSLKPEDTAVYRCAVGTKIGTMGPRYDYWGQGTQVTVSS | 1.19 | 68 fold | 80 fold |  |
| VHH108B1 (VHH) VHH: EVQLVESGGGLVQPGGSLTLSCTASGFRFSDRSMGWYRQAPGKQRELVAAITVGGSTNYADSVKGRFTISRDNAKNTVYLQMNSLKPEDTALYYCNRRYPPDDYWGQGTQVTVSS | 2.73 | 184 fold | 260 fold |  |
| VHH154B1 (VHH) VHH: QVQLQESGGGLVQVGDSLRLSCVASGRIFGVNTRAWYRQAPGNQRELVAQISSGGNINYADSVKGRFTISMDKFTDTVYLQMNSLKPEDTAIYRCAAHRQHPYADVWGQGTQVSVSS | 2.85 | 21 fold | 24 fold |  |
| VHH115B1 (VHH) VHH: QVQLVESGGGLVQAGGSLRLSCLASGRTSNYFMGWFRQAPGKEREFVAAISRSGGGTWYADSVKGRFAISRDNAKNTVNLQMNSLKREDTAVYYCAADRRTGTSVYTVDEYDYWGQGTQVTVSS | 1.9 | 62 fold | 101 fold |  |
| VHH216B2 (VHH) VHH: QVQLVESGGGLVQPGGSLRLSCATSEHTFGTYRMGWFRQAPGKEREFVAGISWTGQTTYYAASVKGRFAISKDNAKNTVYLQMNTLKSDDTAVYYCAVETNNLGRWDRPSEYDYWGQGTQVTVSS |  |  |  | 0.98 fold |
| VHH104B1 (VHH) VHH: EVQLVESGGGLVQPGGSLRLFCAASRSIFNINIMGWYRQAPGKQREWLASITSGGSTFYADSVKDRFTISRDSVKNTVYLQMNSLKPEDTAAYYCNRYRSVPLNTVYPWGQGTLVTVSS | 2.97 | 161 fold | 152 fold |  |
| VHH195B1 (VHH) VHH: QVQLVESGGGLVQAGGSLRLSCAASGRTFGTYAMGWFRQAPGKERDFVARISNSGAFTHYADSVKGRFTISRDNAKNTVYLHMNSLENGDTAAYYCVATRGTNSAYYTRSTMYEYWGQGTQVTVSS | 2.93 | 58 fold | 78 fold |  |

The next lines start with the values.

| OD450 nm [1] | FOB [2] | FOB [3] | FOB [4] | Binder |
| --- | --- | --- | --- | --- |
| 3.3 | 91 fold | 183 fold |  | VHH258B1 (VHH) VHH: QVQLVESGGGLVQAGGSLRLSCAASGRTFSSYVMGWFRQAPGQEREFVAAIMRNGIMTYYADSVKGRFTISRDNAKNTVYLQMNTLKPDDTAVYYCAAASRVGVSISQSSSYTSWGQGTQVTVSS |
| 0.349 | 81 fold | 146 fold |  | VHH233B1 (VHH) VHH: QVQLVESGGGLVQAGGSLRLSCAASRSISSFNEMAWYRQAPGEQRELVATIVSTVGFTNYADSVKGRFTISRDNAKNTVYLQMNSLKAEDTAVYYCNARRISTDYWGQGTQVTVSS |
| 3.33 | 44 fold | 50 fold |  | VHH238B1 (VHH) VHH: QLQLVESGGGLVQPGGSLRLSCAASGFTFSSYGMSWVRQAPGKGLEWVSYISAGGGTTTYVDFVKGRFTISRDNAKNMLYLQMNSLKPEDTAVYYCVHAADGSRGQGTQVTVSS |
| 0.144 | 89 fold | 105 fold |  | VHH263B1 (VHH) VHH: EVQLVESGGGLVQAGGSLRLSCAASGSKFSFNAMGWYRQTPGKQRELVAIIINGDMINYADSVKGRFTISRDNAKNTMYLQMNSLKPEDTAVYYCKMTRYVYDYWGQGTQVTVSS |
| 3.2 | 24 fold | 31 fold |  | VHH276B1 (VHH) VHH: QVQLVESGGGLVQAGASLRLSCAASGRTFSSYAMGWFRQAPGKEREFVAAISGGTPNNIYYTNYKDAVRGRFTISRDNAKNTVYLQMSSLKPEDTAVYYCGATMGRYWNTGGYDYWGQGTQVTVSS |
| 3.12 | 36 fold | 78 fold |  | VHH245B1 (VHH) VHH: QVQLQESGGGLVQAGGSLRLSCAASGSIASINAMGWYRQAPGKQRDFVARIQLSGQTSYAHSVRGRFTISRDNAKNTVYLQMNNLKPEDTAVYVCAASNTGSLYGLRNYWGQGTQVTVSS |
|  |  |  | 2.37 fold | VHH241B2 (VHH) VHH: QVQLVESGGGLVQLGDSLRLSCAASGRGFSSWTMAWFRQALGKRREFVAAITATGARTCSAESEGRFTISRDNAKNMVFLQMNSLKAEDTAVYYCAATGIASWDPGMADKYTYWGQGTQVTVSS |
| 1.06 | 93 fold | 119 fold |  | VHH321B1 (VHH) VHH: QVQLVESGGGLVQPGGSLRLSCIASGFTFSDYAMKWVRRPPGKGLEWVSVIDSEGPTIKYSDAVRGRFTISRDNAKNTLYLQMNSLKPEDTAVYYCAKSNGGSAFSSVLYTDRGQGTQVTVSS |
